Test results from paper PMC10592561.

Biological target: Complement C3b, human, purified (human) (UniProt P01024)
Assay: SPR

| Kd [µM] | Substance |
| --- | --- |
| 6.8 | Factor H CCP1-4, wild type (domain or fragment) |
| 64.4 | Factor H CCP1-4 variant R166Q (domain or fragment) |
